According to paper PMC6793942, “The Ps and Qs of alarmone synthesis in Staphylococcus aureus” (PLoS ONE, 2019):

Columns and labels:
EF-RelQ = biological target: T1, EF-RelQ (Enterococcus faecalis, UniProt Q830U9); conditions: allosteric activator; ppGpp synthesis from 1 mM GDP + 1 mM ATP; 2 mM MgCl2; pH 9.0; 37°C
T1 construct: gene EF_2671
Source text: AMP formation by anion exchange chromatography, fold change of rate on EF-RelQ

Sm-RelQ = biological target: T2, Sm-RelQ (Streptococcus mutans, UniProt Q8DU97); conditions: allosteric activator; pGpp synthesis from 1 mM GMP + 1 mM ATP; 2 mM MgCl2; pH 9.0; 37°C
T2 construct: gene SMU_1046c
T2 sequence (Q8DU97 entry or part of it): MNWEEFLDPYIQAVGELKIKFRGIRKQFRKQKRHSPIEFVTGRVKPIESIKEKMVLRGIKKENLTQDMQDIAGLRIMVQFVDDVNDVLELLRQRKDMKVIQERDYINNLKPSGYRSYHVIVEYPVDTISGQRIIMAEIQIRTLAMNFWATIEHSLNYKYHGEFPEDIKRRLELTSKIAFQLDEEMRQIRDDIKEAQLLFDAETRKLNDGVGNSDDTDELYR
Source text: AMP formation by anion exchange chromatography, fold change of rate on Sm-RelQ

Sm-RelP = biological target: T3, Sm-RelP (Streptococcus mutans, UniProt Q8DUK1); conditions: inhibitor; pGpp synthesis from 1 mM GMP + 1 mM ATP; 2 mM MgCl2; pH 9.0; 37°C
T3 construct: gene SMU_926
T3 sequence (Q8DUK1 entry or part of it): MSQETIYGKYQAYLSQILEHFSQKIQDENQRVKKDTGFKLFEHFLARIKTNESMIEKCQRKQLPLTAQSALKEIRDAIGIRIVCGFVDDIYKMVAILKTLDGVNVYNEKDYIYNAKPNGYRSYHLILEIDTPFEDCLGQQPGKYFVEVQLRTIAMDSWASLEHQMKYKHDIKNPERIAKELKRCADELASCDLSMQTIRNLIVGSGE
Source text: AMP formation by anion exchange chromatography, fold change of rate on Sm-RelP

[1] = test system: Nc1nc2c(ncn2[C@@H]2O[C@H](COP(=O)(O)OP(=O)(O)O)[C@@H](OP(=O)(O)OP(=O)(O)O)[C@H]2O)c(=O)[nH]1; assay: purified protein; conditions: hydrolysis (HD domain), 1 mM MnCl2, 10 mM MgCl2, pH 7.8, 25°C
[2] = test system: Nc1nc2c(ncn2[C@@H]2O[C@H](COP(=O)(O)OP(=O)(O)O)[C@@H](O)[C@H]2O)c(=O)[nH]1; assay: purified protein; conditions: ppGpp synthesis (SYNTH domain), 8 mM ATP, 6 mM MgCl2, pH 7.8, 25°C
[3] = test system: Nc1nc2c(ncn2[C@@H]2O[C@H](COP(=O)(O)OP(=O)(O)OP(=O)(O)O)[C@@H](OP(=O)(O)OP(=O)(O)O)[C@H]2O)c(=O)[nH]1; assay: purified protein; conditions: hydrolysis (HD domain), 1 mM MnCl2, 10 mM MgCl2, pH 7.8, 25°C
[4] = test system: Nc1nc2c(ncn2[C@@H]2O[C@H](COP(=O)(O)OP(=O)(O)OP(=O)(O)O)[C@@H](O)[C@H]2O)c(=O)[nH]1; assay: purified protein; conditions: pppGpp synthesis (SYNTH domain), 8 mM ATP, 6 mM MgCl2, pH 7.8, 25°C
[5] = test system: Nc1nc2c(ncn2[C@@H]2O[C@H](COP(=O)(O)O)[C@@H](OP(=O)(O)OP(=O)(O)O)[C@H]2O)c(=O)[nH]1; assay: purified protein; conditions: hydrolysis (HD domain), 1 mM MnCl2, 10 mM MgCl2, pH 7.8, 25°C
[6] = test system: Nc1nc2c(ncn2[C@@H]2O[C@H](COP(=O)(O)OP(=O)(O)O)[C@@H](O)[C@H]2O)c(=O)[nH]1; assay: product formation by anion exchange chromatography; format: biochemical, Staphylococcus aureus; conditions: ppGpp synthesis, 2.5 mM ATP, 5 mM MgCl2, pH 9.0, no added alarmone
Source text: (§1) product formation by anion exchange chromatography on Sa-RelP

[7] = test system: Nc1nc2c(ncn2[C@@H]2O[C@H](COP(=O)(O)O)[C@@H](O)[C@H]2O)c(=O)[nH]1; assay: product formation by anion exchange chromatography; format: biochemical, Staphylococcus aureus; conditions: pGpp synthesis, 2.5 mM ATP, 5 mM MgCl2, pH 9.0, no added alarmone, 625 ± 165 in the source
Source text: as §1

[8] = test system: Nc1nc2c(ncn2[C@@H]2O[C@H](COP(=O)(O)OP(=O)(O)OP(=O)(O)O)[C@@H](O)[C@H]2O)c(=O)[nH]1; assay: product formation by anion exchange chromatography; format: biochemical, Staphylococcus aureus; conditions: pppGpp synthesis, 2.5 mM ATP, 5 mM MgCl2, pH 9.0, no added alarmone
Source text: as §1

T1 sequence (Q830U9 entry or part of it): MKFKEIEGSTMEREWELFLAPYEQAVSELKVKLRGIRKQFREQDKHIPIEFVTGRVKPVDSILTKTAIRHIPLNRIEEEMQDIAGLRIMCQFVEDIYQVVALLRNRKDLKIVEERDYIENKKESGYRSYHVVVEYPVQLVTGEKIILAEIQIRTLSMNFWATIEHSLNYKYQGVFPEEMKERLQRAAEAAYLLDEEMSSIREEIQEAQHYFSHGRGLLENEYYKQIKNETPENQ

## Nc1nc2c(ncn2[C@@H]2O[C@H](COP(=O)(O)OP(=O)(O)O)[C@@H](OP(=O)(O)OP(=O)(O)O)[C@H]2O)c(=O)[nH]1 [ppGpp, guanosine-3’,5’-bis(diphosphate)]
EF-RelQ
  + 100 μM ppGpp / Fold-change: 7.8 ± 0.6 fold

## Nc1nc2c(ncn2[C@@H]2O[C@H](COP(=O)(O)OP(=O)(O)OP(=O)(O)O)[C@@H](OP(=O)(O)OP(=O)(O)O)[C@H]2O)c(=O)[nH]1 [pppGpp, guanosine-5’-triphosphate 3’-diphosphate]
Sm-RelQ
  + 100 μM pppGpp / Fold-change: 572 ± 149 fold
Sm-RelP
  + 100 μM pppGpp / Fold-change: 0.3 ± 0.1 fold

## Sa-Rel (Staphylococcus aureus subsp. aureus MRSA252)
[1]
  Km: 21.7 ± 2.8 µM
  Vmax: 3.6 µM/min
  kcat: 0.6 s⁻¹
  kcat/Km: 27500 M⁻¹ s⁻¹
[2]
  Km: 434.9 ± 61.2 µM
  Vmax: 1.08 µM/min
  kcat: 0.018 s⁻¹
  kcat/Km: 41 M⁻¹ s⁻¹
[3]
  Km: 14.2 ± 1.3 µM
  Vmax: 4.68 µM/min
  kcat: 0.78 s⁻¹
  kcat/Km: 55200 M⁻¹ s⁻¹
[4]
  Km: 114.3 ± 15.7 µM
  Vmax: 3.84 µM/min
  kcat: 0.064 s⁻¹
  kcat/Km: 560 M⁻¹ s⁻¹
[5]
  Km: 16.9 ± 2.1 µM
  Vmax: 4.08 µM/min
  kcat: 0.68 s⁻¹
  kcat/Km: 40000 M⁻¹ s⁻¹

## Sa-RelP (Staphylococcus aureus subsp. aureus NCTC 8325)
[6]
  Km: 177 ± 52 µM
  Vmax: 12 µM/min
  kcat: 0.78 ± 0.08 s⁻¹
  kcat/Km: 4430 ± 900 M⁻¹ s⁻¹
[7]
  Km: 625 ± 169 µM
  Vmax: 3.6 µM/min
  kcat: 0.06 ± 0.01 s⁻¹
  kcat/Km: 90 ± 20 M⁻¹ s⁻¹
[8]
  Km: 80 ± 21 µM
  Vmax: 6 µM/min
  kcat: 0.38 ± 0.03 s⁻¹
  kcat/Km: 4750 ± 1000 M⁻¹ s⁻¹
